From patent publication US20210388102A1
Residue numbers refer to the chain shown, from its start. One block for each binder: values may come before it.

Biological target: His peptide-tagged soluble cynoADAM9 (cynoADAM9-His) (cynomolgus monkey)
Experiment: SPR (BIACORE), antibody captured, cynoADAM9-His in flow

Kd: 110 nM
koff: 0.022 s⁻¹
kon: 200000 M⁻¹ s⁻¹
B1: hMAB-A (2.2) (antibody, human IgG1, kappa, V domains shown)
VH: EVQLVESGGGLVKPGGSLRLSCAASGFTFSSYWMHWVRQAPGKGLEWVGEIIPIFGHTNYNEKFKSRFTISLDNSKNTLYLQMGSLRAEDTAVYYCARGGYYYYGSRDYFDYWGQGTTVTVSS
VL: DIVMTQSPDSLAVSLGERATISCKASQSVDYSGDSYMNWYQQKPGQPPKLLIYAASDLESGIPARFSGSGSGTDFTLTISSLEPEDFATYYCQQSHEDPFTFGQGTKLEIKR

Kd: < 0.3 nM
koff: < 1e-05 s⁻¹
kon: 350000 M⁻¹ s⁻¹
B2: hMAB-A (2C.2) (antibody, human IgG1, kappa, V domains shown)
VH: B1 VH with G105P, S106R, R107F, D108G, Y109W, F110L
VL: B1 VL

Kd: 0.7 nM
koff: 0.0003 s⁻¹
kon: 420000 M⁻¹ s⁻¹
B3: hMAB-A (2D.2) (antibody, V domains shown)
VH: B1 VH with G105T, S106G, R107K, D108G, Y109V, F110L
VL: DIVMTQSPDSLAVSLGERATISCKASQSVDYSGDSYMNWYQQKPGQPPKLLIYAASDLESGIPARFSGSGSGTDFTLTISSLEPEDFATYYCQQSHEDPFTFGQGTKLEIK

Kd: 0.2 nM
koff: 6.6e-05 s⁻¹
kon: 340000 M⁻¹ s⁻¹
B4: hMAB-A (2B.2) (antibody, V domains shown)
VH: B1 VH with G105I, S106G, R107K, D108G, Y109V, F110L
VL: B3 VL
